# Results taken from the supplement of paper PMC7877785.
# ± gives the uncertainty stated by the source.
# Assay: self-splicing fitness, log relative to wild type (ln ratio); higher = more splicing; Tetrahymena group I intron in knt gene, E. coli kanamycin selection, DiMSum; sequences stand for … in CUCUCU…GGAGGGAAAAGUUAUCAGGCAUGCACCUGGUAGCUAGUCUUUAAACCAAUAGAUUGCAUCGGUUUAAAAGGCAAGACCGUCAAAUUGCGGGAAAGGGGUCAACAGCCGUUCAGUACCAAGUCUCAGGGGAAACUUUGAGAUGGCCUUGCAAAGGGUAUGGUAAUAAGCUGACGGACAUGGUCCUAACCACGCAGCCAAGUCCUAAGUCAACAGAUCUUCUGUUGAUAUGGAUGCAGUUCACAGACUAAAUGUCGGUCGGGGAAGAUGUAUUCUUCUCAUAAGAUAUAGUCGGACCUCUCCUUAAUGGGAGCUAGCGGAUGAAGUGAUGCAACACUGGAGCCGCUGGGAACUAAUUUGUAUGCGAAAGUAUAUUGAUUAGUUUUGGAGUACUCGUGGUCG
# Method in brief: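 Colonies from six replicate transformations of E. coli BL21(DE3) were pooled and amplicon-sequenced on an Illumina HiSeq 2500. The library placed an intron with all eight P1ex-region nucleotides randomised inside the knt kanamycin-resistance gene on pET-22b(+), and cells grew overnight at 37°C or 30°C on LB agar with or without 25 μg/mL kanamycin (plus 100 μg/mL carbenicillin, 50 μM IPTG, 0.2% rhamnose). Fitness is the DiMSum error-weighted combination of wild-type-normalised replicate fold changes, kanamycin versus none.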
Sequence,self-splicing fitness (ln) (30 °C),self-splicing fitness (ln) (37 °C)
GGGCAGCAAUAUUACGGGAA,-2.67 ± 0.31,-2.7 ± 0.32
CGGAAGCAAUAUUACGUCAU,-3.78 ± 0.16,-3.33 ± 0.2
UGGCAGCAAUAUUACGCCCU,-0.69 ± 0.27,–
UACUAGCAAUAUUACGAAAC,–,-2.1 ± 0.32
GAUUAGCAAUAUUACGGUCG,-1.28 ± 0.11,-0.366 ± 0.13
GGGGAGCAAUAUUACGUUCU,-2.67 ± 0.43,-0.226 ± 0.35
ACGGAGCAAUAUUACGGAAA,–,-2.15 ± 0.24
UGUCAGCAAUAUUACGUGAA,-0.122 ± 0.068,0.427 ± 0.083
GCAAAGCAAUAUUACGCUUG,-3.98 ± 0.18,-2.64 ± 0.18
CCGUAGCAAUAUUACGUGGG,-4.15 ± 0.2,-3.05 ± 0.17
GCUGAGCAAUAUUACGUGCA,-1.81 ± 0.19,-0.958 ± 0.19
GAAUAGCAAUAUUACGAAAC,-1.62 ± 0.24,-0.632 ± 0.17
UCGGAGCAAUAUUACGUCAC,-3.68 ± 0.43,-2.68 ± 0.36
UGUUAGCAAUAUUACGAUGG,-1.71 ± 0.11,-0.474 ± 0.1
GUGUAGCAAUAUUACGUUAC,–,-2.56 ± 0.35
CCAUAGCAAUAUUACGAUUU,-3.31 ± 0.2,-2.37 ± 0.23
UGCCAGCAAUAUUACGGAAG,-2.55 ± 0.073,-1.42 ± 0.071
CUCCAGCAAUAUUACGGGGG,-3.56 ± 0.16,-2.89 ± 0.19
UUGCAGCAAUAUUACGAUAG,-0.692 ± 0.079,0.225 ± 0.11
ACCCAGCAAUAUUACGAUCA,-0.557 ± 0.11,-0.56 ± 0.13
GUGCAGCAAUAUUACGGGGG,-4.19 ± 0.23,-2.58 ± 0.18
AUCUAGCAAUAUUACGAGCU,-2.29 ± 0.17,-0.565 ± 0.17
UCGUAGCAAUAUUACGUUAG,-3.83 ± 0.3,-2.1 ± 0.46
AUGCAGCAAUAUUACGUCUC,-1.93 ± 0.071,-1.05 ± 0.092
CUGUAGCAAUAUUACGUGUG,-1.79 ± 0.058,-0.37 ± 0.071

Sequence,self-splicing fitness (ln) (30 °C),self-splicing fitness (ln) (37 °C)
GUUUAGCAAUAUUACGUACG,-2.01 ± 0.14,-0.33 ± 0.17
GGCAAGCAAUAUUACGUUAG,-3.77 ± 0.2,-2.57 ± 0.19
UCACAGCAAUAUUACGGCUA,-1.64 ± 0.095,-0.219 ± 0.077
AACUAGCAAUAUUACGCCGU,-1.62 ± 0.11,-0.221 ± 0.14
UUCAAGCAAUAUUACGGAGA,-1.55 ± 0.18,-1.32 ± 0.19
GAAGAGCAAUAUUACGACAU,-2.22 ± 0.017,-1.35 ± 0.035
UCUGAGCAAUAUUACGAUGC,–,-0.729 ± 0.36
CAGCAGCAAUAUUACGUCGA,-1.73 ± 0.12,-1.25 ± 0.11
ACAUAGCAAUAUUACGAUUC,-2.52 ± 0.15,-1.52 ± 0.12
UACAAGCAAUAUUACGCCUU,-0.984 ± 0.091,-1.04 ± 0.092
GCUUAGCAAUAUUACGUUGA,-2.65 ± 0.2,-1.15 ± 0.16
UGCCAGCAAUAUUACGCACU,-2.03 ± 0.069,-0.315 ± 0.066
UAACAGCAAUAUUACGACUC,-0.882 ± 0.084,-0.517 ± 0.11
AUAAAGCAAUAUUACGCGUG,-1.11 ± 0.067,-0.15 ± 0.074
GAUGAGCAAUAUUACGAAUU,-3.84 ± 0.47,–
UAAUAGCAAUAUUACGUAUU,-4.09 ± 0.28,-1.95 ± 0.16
UAUAAGCAAUAUUACGAACA,-0.73 ± 0.15,-0.241 ± 0.21
AGUUAGCAAUAUUACGUUGA,-2.03 ± 0.31,-2.02 ± 0.39
CUAGAGCAAUAUUACGGGAC,-2.5 ± 0.16,-1.05 ± 0.18
GUCAAGCAAUAUUACGACUG,-4.59 ± 0.27,-4.75 ± 0.45
AGGAAGCAAUAUUACGACCA,-0.504 ± 0.06,-0.317 ± 0.096
UUACAGCAAUAUUACGAGCC,-2.86 ± 0.44,-1.13 ± 0.31
UGCCAGCAAUAUUACGUUCA,-0.171 ± 0.059,-0.0317 ± 0.089
CUCCAGCAAUAUUACGCUGG,-1.92 ± 0.23,–
GAUGAGCAAUAUUACGUACU,-1.85 ± 0.19,-0.913 ± 0.26
